No end group written: not given here.
Biological target: the molecule itself
Test: cross-linking; disulfide cross-linking of engineered terminal Cys residues; purified fragments on SDS-PAGE under non-reducing conditions (only a monomer band under reducing conditions)

| Protein | stoichiometry N |
| --- | --- |
| CGGQAINVSSRFEEEIKAEQEERKKQAEEMKQRKAAFKELQSTFK (domain or fragment, human, engineered CysGlyGly at the N-terminus of the fragment; human EFhd2/Swiprosin-1 predicted coiled-coil domain, residues 199-240; source: E. coli, purified (pGEX-4T-1; GST removed by thrombin); not shown: GST, N-terminal, cleaved) [CC1: EFhd2 coiled-coil domain (residues 199-240) with CysGlyGly at the N-terminus] | 2 |
| QAINVSSRFEEEIKAEQEERKKQAEEMKQRKAAFKELQSTFKGGC (domain or fragment, human, also: disulfide-linked dimer via Cys, human EFhd2/Swiprosin-1 predicted coiled-coil domain, residues 199-240; engineered GlyGlyCys at the C-terminus of the fragment; source: E. coli, purified (modified pET-21a, same procedure as the other EFhd2 proteins); not shown: His6, N-terminal, kept) [CC2: EFhd2 coiled-coil domain (residues 199-240) with GlyGlyCys at the C-terminus] | 2 |
